Test results taken from patent US20260008817A1, “CYCLIC PEPTIDE OR SALT THEREOF, AND USES THEREOF” (FUJIFILM Corporation, priority 2023, published 2026).
Positions of bridges follow the written chain, without caps; N, C: chain ends. No end group written: not given here. COCH2 = acetyl group that carries the bridge

Molecular target: T1, Recombinant Human FGFR1 alpha (IIIc) Fc Chimera Protein (Homo sapiens, UniProt P11362)
T1 construct: purchased R&D systems 658-FR-050
Experiment: ELISA binding affinity of enzymatically synthesized peptide to FGFR
Settings: ELISA luminescence signal at 10 nmol/L peptide, SEQ ID NO: 239 standardized to 1; enzyme synthesis product
Procedure: The binding affinity of the peptide to FGFR was evaluated using an ELISA method.
The peptide used for the evaluation was enzymatically synthesized by the following method.
First, a fusion peptide (SEQ ID NO: 25) in which a translation enhancing sequence (SEQ ID NO: 22), a peptide, a Myc tag (SEQ ID NO: 23), and a HiBiT tag (SEQ ID NO: 24) were linked in this order was designed. Next, a template DNA sequence (SEQ ID NO: 26) was designed in which a T7 promoter sequence, a Shine-Dalgarno sequence, a sequence necessary for transcription and translation initiation, such as a start codon (ATG), was provided on the 5′ terminal side of the DNA sequence encoding the fused peptide, and a stop codon group was provided on the 3′ terminal side thereof. In a case where the triplet TAG codon is included in the template DNA sequence, the above-described codon is assigned to the codon of chloroacetylated lysine, and thus, the peptide encoded by the above-described DNA sequence is a cyclic peptide in which a thiol group of cysteine and a chloroacetyl group of chloroacetylated lysine spontaneously form a thioether bond.
The cell-free enzymatic synthesis of the polypeptide was performed in a translation solution containing a template DNA, PUREfrex 2.0 (GeneFrontier, PF201-0.25-5), and Aminoacyl tRNA (1). 1.75 μL ([…]) of the template DNA prepared to 50 ng/μL, 2.5 μL of PUREfrex 2.0 Solution I, 0.25 μL of Solution II, 0.5 μL of Solution III, and a dried product of Aminoacyl tRNA (1) (final concentration: 0.5 ng/μL) were mixed and mixture was subjected to a reaction at 37° C. for 1 hour.
The concentration of the enzymatically synthesized peptide was measured using the peptide diluted with Can Get Signal Immunoreaction Enhancer Solution I (TOYOBO, NKB-101), Nano-Glo HiBiT Lytic Detection System (Promega, N3040), and a chemical synthetic peptide for a calibration curve having a known concentration (SEQ ID NO: 33) according to the standard protocol of the Nano-Glo HiBiT Lytic Detection System.
The binding affinity of the enzymatically synthesized peptide to FGFR was measured by evaluating the amount of the peptide bound to FGFR by ELISA.
First, 5 ng of Recombinant Human FGFR1 alpha (IIIc) Fc Chimera Protein (R&D systems, 658-FR-050) was immobilized in each well of a 96-well plate, and blocked with Pierce Protein-Free (PBS) Blocking Buffer (Thermo, 37572), and a peptide diluted with Can Get Signal Immunoreaction Enhancer Solution I (TOYOBO, NKB-101) was then added and reacted at room temperature for 3 hours. After washing with 0.05% Tween 20-containing phosphate buffered saline (PBS), an anti-Myc antibody (Cell Signaling, 14038S) diluted with Can Get Signal Immunoreaction Enhancer Solution II (TOYOBO, NKB-101) was added and reacted at room temperature for 2 hours. After washing with 0.05% Tween 20-containing PBS, SuperSignal ELISA Femto Substrate (Thermo, 37075) was added, and the luminescence amount was measured. The dose-response relationship was calculated from using the difference between the luminescence amount in the well in which FGFR was immobilized and the luminescence amount in the well in which FGFR was not immobilized, and the concentration of the peptide at the time of reaction, and the binding affinity to FGFR was evaluated according to the following evaluation criteria. The evaluation result preferably satisfies the evaluation criteria A, B, or C.
In a case where a value of a luminescence signal emitted by the cyclic peptide set forth in SEQ ID NO: 239 at a reaction concentration of 10 nmol/L is standardized to 1, evaluation criteria of the luminescence signal value emitted by the peptide at a reaction concentration of 10 nmol/L is as follows. • A: 0.7 or more • B: 0.5 or more and less than 0.7 • C: 0.1 or more and less than 0.5 • D: less than 0.1.

T1 sequence (P11362 with tags, fused parts or gaps limits assumed): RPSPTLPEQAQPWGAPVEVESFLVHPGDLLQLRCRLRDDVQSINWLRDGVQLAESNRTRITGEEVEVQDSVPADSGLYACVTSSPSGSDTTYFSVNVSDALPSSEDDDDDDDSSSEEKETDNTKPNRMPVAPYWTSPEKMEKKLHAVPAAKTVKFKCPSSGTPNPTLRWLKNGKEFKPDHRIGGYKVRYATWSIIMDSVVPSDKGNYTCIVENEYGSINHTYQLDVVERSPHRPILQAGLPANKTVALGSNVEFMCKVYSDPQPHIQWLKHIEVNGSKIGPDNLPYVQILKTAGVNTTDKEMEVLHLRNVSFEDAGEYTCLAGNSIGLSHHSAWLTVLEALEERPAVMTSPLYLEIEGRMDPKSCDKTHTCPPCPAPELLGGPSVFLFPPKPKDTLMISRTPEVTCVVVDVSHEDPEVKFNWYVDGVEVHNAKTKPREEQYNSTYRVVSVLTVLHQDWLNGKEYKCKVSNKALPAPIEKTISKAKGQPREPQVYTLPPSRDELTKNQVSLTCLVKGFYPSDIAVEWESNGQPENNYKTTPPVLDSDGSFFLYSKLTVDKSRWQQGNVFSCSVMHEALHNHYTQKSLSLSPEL

Row | Substance | Evaluation result of binding affinity to FGFR
1 | 254 (LCVYTFNWQQKFGHHLTK(COCH2)I; thioether 2-18 (inferred)) [compound 254] | C (0.1 or more and less than 0.5)
2 | 323 (ICVYTFDANAHSLDAALTK(COCH2)I; thioether 2-19 (inferred)) [compound 323] | A (0.7 or more)
3 | 162 (ICVYTFDAHAHSAHAALTK(COCH2)I; thioether 2-19 (inferred)) [compound 162] | A (0.7 or more)
4 | 114 (ICVYTFDATAHSLHAALTKI; Description of Artificial Sequence: Cyclic peptide) [compound 114] | A (0.7 or more)
5 | 238 (VCIWVFNRFAHTLKESLTK(COCH2)V; thioether 2-19 (inferred)) [compound 238] | C (0.1 or more and less than 0.5)
6 | 309 (FCVYTFDAHAHSLDDALTK(COCH2)I; thioether 2-19 (inferred)) [compound 309] | A (0.7 or more)
7 | 200 (ICVYTFDAHAHSLHQALTK(COCH2)I; thioether 2-19 (inferred)) [compound 200] | A (0.7 or more)
8 | 90 (ICVYTFDPHAHSLHAALTK(COCH2)I; thioether 2-19 (inferred)) [compound 90] | B (0.5 or more and less than 0.7)
9 | 315 (FCVYTFDAHAHSLDDALNK(COCH2)I; thioether 2-19 (inferred)) [compound 315] | A (0.7 or more)
10 | 50 (TCVYTFDAHAHSLHAALTK(COCH2)I; thioether 2-19 (inferred)) [compound 50] | A (0.7 or more)
11 | 262 (WCNFANVWTFNKS; Description of Artificial Sequence: Cyclic peptide) [compound 262] | C (0.1 or more and less than 0.5)
12 | 79 (ICVYTHDAHAHSLHAALTK(COCH2)I; thioether 2-19 (inferred)) [compound 79] | C (0.1 or more and less than 0.5)
13 | 269 (HCLWQWTPQTHFVKL; Description of Artificial Sequence: Cyclic peptide) [compound 269] | A (0.7 or more)
14 | 189 (ICVYTFDAHAHSLDAALTK(COCH2)I; thioether 2-19 (inferred)) [compound 189] | A (0.7 or more)
15 | 289 (DCPWSVFSWYIPIYNK(COCH2)I; thioether 2-16 (inferred)) [compound 289] | C (0.1 or more and less than 0.5)
16 | 305 (ICVYTFDAHAHSLDDALNK(COCH2)V; thioether 2-19 (inferred)) [compound 305] | A (0.7 or more)
17 | 49 (SCVYTFDAHAHSLHAALTK(COCH2)I; thioether 2-19 (inferred)) [compound 49] | A (0.7 or more)
18 | 206 (ICVYTFDAHAHSLHHALTK(COCH2)I; thioether 2-19 (inferred)) [compound 206] | A (0.7 or more)
19 | 44 (FCVYTFDAHAHSLHAALTK(COCH2)I; thioether 2-19 (inferred)) [compound 44] | A (0.7 or more)
20 | 279 (QCLQKVGYLLWQFGWSK(COCH2)I; thioether 2-17 (inferred)) [compound 279] | C (0.1 or more and less than 0.5)
21 | 244 (DCTQGKILTYSQALFSFGVK(COCH2)I; thioether 2-20 (inferred)) [compound 244] | A (0.7 or more)

Row | Substance | Evaluation result of binding affinity to FGFR
22 | 183 (ICVYTFDAHAHSLYAALTK(COCH2)I; thioether 2-19 (inferred)) [compound 183] | B (0.5 or more and less than 0.7)
23 | 81 (ICVYTFGAHAHSLHAALTK(COCH2)I; thioether 2-19 (inferred)) [compound 81] | C (0.1 or more and less than 0.5)
24 | 38 (ICVYTFDAHAHSLHAALTKI; not fully specified; Description of Artificial Sequence: Cyclic peptide) [compound 38] | A (0.7 or more)
25 | 191 (ICVYTFDAHAHSLRAALTK(COCH2)I; thioether 2-19 (inferred)) [compound 191] | B (0.5 or more and less than 0.7)
26 | 107 (ICVYTFDAVAHSLHAALTKI; Description of Artificial Sequence: Cyclic peptide) [compound 107] | C (0.1 or more and less than 0.5)
27 | 229 (ICVYTFDAHAHSLHAALTK(COCH2)Y; thioether 2-19 (inferred)) [compound 229] | C (0.1 or more and less than 0.5)
28 | 273 (PCWWATQIWTYPFYKV; Description of Artificial Sequence: Cyclic peptide) [compound 273] | C (0.1 or more and less than 0.5)
29 | 156 (ICVYTFDAHAHQLHAALTK(COCH2)I; thioether 2-19 (inferred)) [compound 156] | A (0.7 or more)
30 | 203 (ICVYTFDAHAHSLHDALTK(COCH2)I; thioether 2-19 (inferred)) [compound 203] | A (0.7 or more)
31 | 286 (HCLWSLHSFYTFKAWAK(COCH2)I; thioether 2-17 (inferred)) [compound 286] | C (0.1 or more and less than 0.5)
32 | 308 (FCVYTFDAHAHSLHDALTK(COCH2)I; thioether 2-19 (inferred)) [compound 308] | A (0.7 or more)
33 | 144 (ICVYTFDAHADSLHAALTK(COCH2)I; thioether 2-19 (inferred)) [compound 144] | A (0.7 or more)
34 | 136 (ICVYTFDAHAVSLHAALTKI; Description of Artificial Sequence: Cyclic peptide) [compound 136] | A (0.7 or more)
35 | 231 (ICVYTFDAHAHSLHAALTK(COCH2)N; thioether 2-19 (inferred)) [compound 231] | C (0.1 or more and less than 0.5)
36 | 70 (ICVYSFDAHAHSLHAALTK(COCH2)I; thioether 2-19 (inferred)) [compound 70] | A (0.7 or more)
37 | 37 (CDRTLLYYRLSK; not fully specified; Description of Artificial Sequence: Cyclic peptide) [compound 37] | D (less than 0.1)
38 | 220 (ICVYTFDAHAHSLHAALQK(COCH2)I; thioether 2-19 (inferred)) [compound 220] | A (0.7 or more)
39 | 36 (CRALLRGAPFHLAEK; not fully specified; Description of Artificial Sequence: Cyclic peptide) [compound 36] | D (less than 0.1)
40 | 86 (ICVYTFWAHAHSLHAALTK(COCH2)I; thioether 2-19 (inferred)) [compound 86] | C (0.1 or more and less than 0.5)
41 | 319 (FCVYTFDAHAHSLDAALNK(COCH2)Q; thioether 2-19 (inferred)) [compound 319] | A (0.7 or more)
